What was measured:
[1] = system: HEK293 Nf-kB reporter line; experiment: Activation of HEK293 Nf-kB reporter line by PMA (luciferase); assay type: cell-based; settings: 24 hours incubation; FIG. 5
Protocol: (§1) We used a PMA activator to screen clonal reporter lines. This agent directly effects protein kinase C, thus triggering signaling cascades that activate the reporter gene expression (https://doi.org/10.1007/s11373-005-1210-5; doi: 10.1093/carcin/bgm261). To determine the optimal dose of PMA, we conducted experiments involving activation of the HEK293 Nf-kB reporter line. Cells were seeded in a white 96-well culture plate for adhesion cultures at 3*10^5 cells per well, and PMA activator was added at concentrations indicated in the graph up to 150 μl in a well. All solutions were prepared in DMEM growth medium supplemented with 10% fetal bovine serum, 2 mM L-glutamine and 10 μg/ml gentamicin. The plate was incubated for 24 hours at 37° C. in a humid atmosphere in the presence of 5% CO2. Following incubation, the wells were drained, and 100 μl of luciferin substrate with a lysing component was added, the plate was left in the dark for 10 minutes, after which the luminescence level was detected using a plate reader using the SparkControl V2.1 software package (Tecan, Austria).

[2] = molecular target: AXL receptor expressed on HEK293 reporter cells (HEK293_STAT3-STAT5-AP1_FLuc_AXL; HEK293_AXL_STAT3-STAT5-AP1_FLuc) (UniProt P30530); experiment: cell-based or functional assay
[3] = system: HEK293-STAT3-STAT5-AP1_FLuc_IL10R cells (IL-10 receptor); experiment: IL10 activity determination test (luciferase expression activation); assay type: cell-based, human; settings: various concentrations of IL10; FIG. 8
Protocol: as §1
To evaluate the reporter line in a specific cell test, we expressed the IL-10 receptor onto the surface of the reporter cells. To this end, the HEK293_STAT3-STAT5-AP1_FLuc reporter cell line produced in Example 4 was transfected with plasmid vectors encoding IL-10 receptor subunits produced in Example 2. […]

[4] = system: HEK293_STAT3-STAT5-AP1_FLuc_AXL cells (AXL receptor); experiment: GAS6-dependent AXL-mediated activation of reporter cell line HEK293_STAT3-STAT5-AP1_FLuc_AXL; assay type: cell-based; settings: GAS6 2 μg/ml
Protocol: (§2) To generate the reporter cell line HEK293_STAT3-STAT5-AP1_FLuc_AXL, we used three clones of the universal reporter cell line HEK293_STAT3-STAT5-AP1_FLuc: cl. D1, cl. B3 and cl. C4 #2; on the basis of them, we produced, respectively, 3 pools of cells with an embedded constitutionally expressed AXL receptor gene. AXL-mediated activation of these pools was tested. The test was performed in a 96-well culture plate designed for luminescence assays. […] The final volume of the cell suspension in a well was 100 μl, all components of the suspension were prepared in DMEM medium free of fetal bovine serum. After adding all the components, the plate was incubated for 16 hours at 37° C., 5% CO2, and then, using a luminescence assay kit, we measured the luminescence intensity in the wells. The measurement was carried out using a plate reader. The activation level was calculated as the ratio of luminescence level for a given pool in the presence of GAS6 to luminescence level in the absence of GAS6.
B3 and cl. […] D1. […]
The test was performed similarly to the procedure described in Example 7, we used the cells of the reporter line HEK293_STAT3-STAT5-AP1_FLuc_AXL (cl.13) and GAS6 at a concentration of 2 μg/ml (FIG. 11) for activation; following adding all the components, the plate was incubated for the time shown in the graph, the luminescence intensity in the wells was then determined. […]

[5] = system: HEK293_AXL_STAT3-STAT5-AP1 cells (AXL overexpresser); experiment: GAS6 activation of reporter cell line HEK293_AXL_STAT3-STAT5-AP1 as a function of cell count; assay type: cell-based; settings: GAS6 2 μg/ml; 96-well plate; FIG. 17
Protocol: as §2
To create the reporter cell line HEK293_AXL_STAT3-STAT5-AP1_FLuc, we used the cell line HEK293_AXL, an AXL overexpresser, on the basis of which we produced a pool of cells comprising a gene encoding firefly luciferase under the control of STAT3-STAT5-AP1 promoter. […] The test was performed in a similar fashion to the procedure described in Example 7, at a concentration of GAS6 of 2 μg/ml. […]

Sequence of UniProt P30530 (P30530 26-894 limits assumed): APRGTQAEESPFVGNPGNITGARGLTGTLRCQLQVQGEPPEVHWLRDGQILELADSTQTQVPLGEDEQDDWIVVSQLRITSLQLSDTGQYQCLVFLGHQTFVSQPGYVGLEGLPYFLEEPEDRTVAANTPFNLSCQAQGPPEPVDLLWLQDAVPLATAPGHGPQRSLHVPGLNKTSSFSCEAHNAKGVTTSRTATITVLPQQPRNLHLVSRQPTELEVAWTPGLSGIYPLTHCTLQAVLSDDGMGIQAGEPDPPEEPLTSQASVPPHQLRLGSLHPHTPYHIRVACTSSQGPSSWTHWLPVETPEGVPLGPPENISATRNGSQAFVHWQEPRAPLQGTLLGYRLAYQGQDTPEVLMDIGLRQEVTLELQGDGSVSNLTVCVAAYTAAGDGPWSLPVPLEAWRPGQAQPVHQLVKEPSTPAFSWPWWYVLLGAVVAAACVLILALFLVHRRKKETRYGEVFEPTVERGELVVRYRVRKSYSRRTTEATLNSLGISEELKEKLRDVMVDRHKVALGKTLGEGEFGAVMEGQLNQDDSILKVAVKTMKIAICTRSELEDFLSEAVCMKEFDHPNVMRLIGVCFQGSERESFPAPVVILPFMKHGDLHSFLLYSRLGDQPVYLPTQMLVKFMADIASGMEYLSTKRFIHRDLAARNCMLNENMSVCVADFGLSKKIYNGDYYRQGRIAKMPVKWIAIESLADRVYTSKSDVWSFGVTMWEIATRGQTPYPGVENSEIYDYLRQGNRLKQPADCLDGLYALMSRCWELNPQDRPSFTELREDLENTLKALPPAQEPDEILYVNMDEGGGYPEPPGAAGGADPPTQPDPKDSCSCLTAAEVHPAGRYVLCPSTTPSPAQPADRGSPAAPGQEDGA

CCCCCCCCCCCCCC(=O)O[C@@H]1[C@@H](C)[C@@]2(O)[C@@H](C=C(CO)C[C@]3(O)C(=O)C(C)=C[C@@H]23)[C@@H]2C(C)(C)[C@]12OC(C)=O [PMA]
optimal concentration of the PMA activator [1]: 33 nM

AXL ligand GAS6 (from UniProt Q14393 49-678)
level of GAS6-dependent activation, well A1 (fold over non-activated cells) [2]: 1.35 | level of GAS6-dependent activation, well A2 (fold over non-activated cells) [2]: 1.59 | level of GAS6-dependent activation, well A3 (fold over non-activated cells) [2]: 8.66 | level of GAS6-dependent activation, well A4 (fold over non-activated cells) [2]: 1.09 | level of GAS6-dependent activation, well A6 (fold over non-activated cells) [2]: 1.49 | level of GAS6-dependent activation, well A7 (fold over non-activated cells) [2]: 2.16 | level of GAS6-dependent activation, well A8 (fold over non-activated cells) [2]: 0.85 | level of GAS6-dependent activation, well A9 (fold over non-activated cells) [2]: 0.96 | level of GAS6-dependent activation, well A10 (fold over non-activated cells) [2]: 6.93 | level of GAS6-dependent activation, well A11 (fold over non-activated cells) [2]: 1.54 | level of GAS6-dependent activation, well B1 (fold over non-activated cells) [2]: 1.09 | level of GAS6-dependent activation, well B2 (fold over non-activated cells) [2]: 2.12 | level of GAS6-dependent activation, well B3 (fold over non-activated cells) [2]: 1.33 | level of GAS6-dependent activation, well B4 (fold over non-activated cells) [2]: 1.28 | level of GAS6-dependent activation, well B5 (fold over non-activated cells) [2]: 1.5 | level of GAS6-dependent activation, well B6 (fold over non-activated cells) [2]: 0.99 | level of GAS6-dependent activation, well B7 (fold over non-activated cells) [2]: 1.12 | level of GAS6-dependent activation, well B8 (fold over non-activated cells) [2]: 2.1 | level of GAS6-dependent activation, well B9 (fold over non-activated cells) [2]: 1.26 | level of GAS6-dependent activation, well B10 (fold over non-activated cells) [2]: 1.58 | level of GAS6-dependent activation, well B11 (fold over non-activated cells) [2]: 2.56 | level of GAS6-dependent activation, well B12 (fold over non-activated cells) [2]: 1.4 | level of GAS6-dependent activation, well C1 (fold over non-activated cells) [2]: 0.92 | level of GAS6-dependent activation, well C2 (fold over non-activated cells) [2]: 1.32 | level of GAS6-dependent activation, well C3 (fold over non-activated cells) [2]: 0.95 | level of GAS6-dependent activation, well C4 (fold over non-activated cells) [2]: 1.2 | level of GAS6-dependent activation, well C5 (fold over non-activated cells) [2]: 1.2 | level of GAS6-dependent activation, well C6 (fold over non-activated cells) [2]: 4.37 | level of GAS6-dependent activation, well C8 (fold over non-activated cells) [2]: 1.04 | level of GAS6-dependent activation, well C9 (fold over non-activated cells) [2]: 1.77 | level of GAS6-dependent activation, well C10 (fold over non-activated cells) [2]: 3.15 | level of GAS6-dependent activation, well C11 (fold over non-activated cells) [2]: 5.55 | level of GAS6-dependent activation, well C12 (fold over non-activated cells) [2]: 1.47 | level of GAS6-dependent activation, well D1 (fold over non-activated cells) [2]: 1.25 | level of GAS6-dependent activation, well D2 (fold over non-activated cells) [2]: 1.29 | level of GAS6-dependent activation, well D3 (fold over non-activated cells) [2]: 2.38 | level of GAS6-dependent activation, well D4 (fold over non-activated cells) [2]: 2.41 | level of GAS6-dependent activation, well D5 (fold over non-activated cells) [2]: 2.63 | level of GAS6-dependent activation, well D6 (fold over non-activated cells) [2]: 1.32 | level of GAS6-dependent activation, well D7 (fold over non-activated cells) [2]: 1.16 | level of GAS6-dependent activation, well D8 (fold over non-activated cells) [2]: 2.12 | level of GAS6-dependent activation, well D9 (fold over non-activated cells) [2]: 1.55 | level of GAS6-dependent activation, well D10 (fold over non-activated cells) [2]: 1.68 | level of GAS6-dependent activation, well D11 (fold over non-activated cells) [2]: 3.74 | level of GAS6-dependent activation, well D12 (fold over non-activated cells) [2]: 1.23 | level of GAS6-dependent activation, well E1 (fold over non-activated cells) [2]: 1.83 | level of GAS6-dependent activation, well E2 (fold over non-activated cells) [2]: 0.93 | level of GAS6-dependent activation, well E3 (fold over non-activated cells) [2]: 3.03 | level of GAS6-dependent activation, well E4 (fold over non-activated cells) [2]: 1.18 | level of GAS6-dependent activation, well E5 (fold over non-activated cells) [2]: 1.73 | level of GAS6-dependent activation, well E6 (fold over non-activated cells) [2]: 1.51 | level of GAS6-dependent activation, well E7 (fold over non-activated cells) [2]: 2.14 | level of GAS6-dependent activation, well E8 (fold over non-activated cells) [2]: 1.13 | level of GAS6-dependent activation, well E9 (fold over non-activated cells) [2]: 1.74 | level of GAS6-dependent activation, well E10 (fold over non-activated cells) [2]: 1.55 | level of GAS6-dependent activation, well E11 (fold over non-activated cells) [2]: 0.86 | level of GAS6-dependent activation, well E12 (fold over non-activated cells) [2]: 1.03 | level of GAS6-dependent activation, well F1 (fold over non-activated cells) [2]: 1.55 | level of GAS6-dependent activation, well F2 (fold over non-activated cells) [2]: 1.34 | level of GAS6-dependent activation, well F3 (fold over non-activated cells) [2]: 7.48 | level of GAS6-dependent activation, well F4 (fold over non-activated cells) [2]: 1.79 | level of GAS6-dependent activation, well F5 (fold over non-activated cells) [2]: 1.69 | level of GAS6-dependent activation, well F7 (fold over non-activated cells) [2]: 2.89 | level of GAS6-dependent activation, well F8 (fold over non-activated cells) [2]: 1.58 | level of GAS6-dependent activation, well F9 (fold over non-activated cells) [2]: 1.53 | level of GAS6-dependent activation, well F10 (fold over non-activated cells) [2]: 1.35 | level of GAS6-dependent activation, well F11 (fold over non-activated cells) [2]: 1.29 | level of GAS6-dependent activation, well F12 (fold over non-activated cells) [2]: 5.65 | level of GAS6-dependent activation, well G1 (fold over non-activated cells) [2]: 2.05 | level of GAS6-dependent activation, well G2 (fold over non-activated cells) [2]: 3.08 | level of GAS6-dependent activation, well G3 (fold over non-activated cells) [2]: 2.51 | level of GAS6-dependent activation, well G4 (fold over non-activated cells) [2]: 1.05 | level of GAS6-dependent activation, well G5 (fold over non-activated cells) [2]: 1.55 | level of GAS6-dependent activation, well G7 (fold over non-activated cells) [2]: 2.12 | level of GAS6-dependent activation, well G8 (fold over non-activated cells) [2]: 2.51 | level of GAS6-dependent activation, well G9 (fold over non-activated cells) [2]: 1.78 | level of GAS6-dependent activation, well G10 (fold over non-activated cells) [2]: 2.5 | level of GAS6-dependent activation, well G11 (fold over non-activated cells) [2]: 2.26 | level of GAS6-dependent activation, well G12 (fold over non-activated cells) [2]: 3.43 | level of GAS6-dependent activation, well H11 (the pool) (fold over non-activated cells) [2]: 3.61 | level of GAS6-dependent activation, well H12 (fold over non-activated cells) [2]: 1.94

B1: IL10: Recombinant human IL10 used as an activator (protein)
chain: SPGQGTQSENSCTHFPGNLPNMLRDLRDAFSRVKTFFQMKDQLDNLLLKESLLEDFKGYLGCQALSEMIQFYLEEVMPQAENQDPDIKAHVNSLGENLKTLRLRLRRCHRFLPCENKSKAVEQVKNAFNKLQEKGIYKAMSEFDIFINYIEAYMTMKIRN
response of the reporter cell line to IL10 activator [3]: dose-dependent response

B2: GAS6: the AXL ligand GAS6; activator of AXL-dependent cell signaling (protein)
chain: AFQVFEEAKQGHLERECVEELCSREEAREVFENDPETDYFYPRYLDCINKYGSPYTKNSGFATCVQNLPDQCTPNPCDRKGTQACQDLMGNFFCLCKAGWGGRLCDKDVNECSQENGGCLQICHNKPGSFHCSCHSGFELSSDGRTCQDIDECADSEACGEARCKNLPGSYSCLCDEGFAYSSQEKACRDVDECLQGRCEQVCVNSPGSYTCHCDGRGGLKLSQDMDTCEDILPCVPFSVAKSVKSLYLGRMFSGTPVIRLRFKRLQPTRLVAEFDFRTFDPEGILLFAGGHQDSTWIVLALRAGRLELQLRYNGVGRVTSSGPVINHGMWQTISVEELARNLVIKVNRDAVMKIAVAGDLFQPERGLYHLNLTVGGIPFHEKDLVQPINPRLDGCMRSWNWLNGEDTTIQETVKVNTRMQCFSVTERGSFYPGSGFAFYSLDYMRTPLDVGTESTWEVEVVAHIRPAADTGVLFALWAPDLRAVPLSVALVDYHSTKKLKKQLVVLAVEHTALALMEIKVCDGQEHVVTVSLRDGEATLEVDGTRGQSEVSAAQLQERLAVLERHLRSPVLTFAGGLPDVPVTSAPVTAFYRGCMTLEVNRRLLDLDEAAYKHSDITAHSCPPVEPAAA
Level of GAS6-dependent activation (activation relative to non-activated cells) ([4]; well H11 = initial pool (based on cl. D1)): 3.61 | incubation time with the highest level of activation ([4]; cl.13, FIG. 11): 24 h | cell count per well with the highest level of activation [5]: 25,000-50,000 cells

Reference: patent US20250333749A1, “INDUCIBLE PROMOTER, VECTOR AND HOST CELL BASED THEREON” (JOINT STOCK COMPANY «BIOCAD», priority 2021, published 2025)
